Drawing on patent US20240336927, this text covers binding signal for one substance.

For this data set, the system named is IgG SLE S6 (anti-BC autoantibody, polyclonal) (human). The data set is described as follows: EMSA. Particulars: reactivity relative to BC200 RNA. On the technique in general: A gel shift assay detects complexes by their altered migration in electrophoresis.

Regarding U4 snRNA, the binding signal is less than 5%.
